These results are taken from patent US9395368B2, “Methods, agents and peptides for inducing an immune response to matrix metalloproteinase-2 expressing tumors” (New York University, priority 2010, dated 2016).

What all share (format): cell-based, human
Assay [1] has as its system Cord blood-derived CD4+/CD25- cells. The assay can be described thus: Priming of naive CD4+ T cells to Melan-A/MART-1 or NY-ESO-1 with DCs pre-incubated with MMP-2. As to the method:
(A) Cord blood-derived CD4^+/CD25^− cells were stimulated with autologous poly(I:C)-matured DCs pulsed with overlapping peptides spanning either Melan-A/MART-1 or NY-ESO-1. Prior to poly(I:C) addition, DCs were incubated with or without MMP-2 (active or heat-inactivated) for 1 h. MMP-2 enzymatic activity was controlled (FIG. 13C-D). After 15 days, CD4^+ T cells were stimulated with the Melan-A/MART-1 or NY-ESO-1 peptide pools (2 μM) for 6 h before intracellular staining of cytokines. Percentages of antigen-specific CD4^+ T cells, secreting indicated cytokines, are represented for all donors. (B) Contour plots showing percentages of cytokine-producing CD4^+ T cells are shown for representative donor CB45 primed to Melan-A/MART-1. Percentage of secreting cells upon peptide stimulation was considered specific/positive when it exceeded by more than twofold the background (cytokine-secreting cells in the absence of stimulation) and had more than 0.5% of responding cells (after background subtraction) for at least one cytokine. For each cytokine, 2 paired t-tests were used to compare priming in the presence of active MMP-2 to either priming in the absence of active MMP-2 or with HI MMP-2. The Bonferroni adjustment was used for multiple comparisons. P values≦0.025 (*) were considered statistically significant using a Bonferroni correction for 2 comparisons.
(§1) T Cell culture, stimulation and priming. Peripheral blood mononuclear cells (PBMCs) were purified from healthy donor-(HD) or cord blood donor-(CB) derived buffy coats (New York Blood Center) by Ficoll-Paque Plus (GE Healthcare) centrifugation. CD4^+/CD25^− cells were enriched (>90%) by magnetic cell sorting (Miltenyi Biotec) and primed/stimulated for 12-15 days either with irradiated (35Gy) autologous CD4^− cells or with autologous mature DCs in IMDM (GIBCO) supplemented with 1 mM HEPES (Life Technologies), 2 mM L-glutamine (Sigma), streptomycin (100 UI/mL)/penicillin (100 μg/mL) (Sigma) and 5% heat inactivated pooled human serum (PHS; Valley Biomedical) in the presence of rhIL-2 (10 UI/mL) and IL7 (5 ng/mL) (R&D Systems). Antigen presenting cells (CD4^− cells or DCs) were loaded either with peptides (2 μM) or with the MMP-2 protein (10 μg/mL) for 2 and 5 h, respectively. DCs were matured using the TLR3 agonist poly(I:C) at 5 μg/mL/10^6 DCs (Amersham). To generate T cell clones, we originally relied on our published methodology (Godefroy et al., 2006; Godefroy et al., 2007; the entire contents of each of which is incorporated herein by reference), involving enrichment of IFNγ-secreting cells upon short-term culture and peptide stimulation to generate MMP-2 responsive clones. Briefly, CD4^+ T cells were stimulated by CD4^− cells irradiated and pulsed with peptides for 12 days in the presence of rhIL-2 and rhIL-7. CD4^+ T cells were then restimulated with peptides for 3 hours before capturing IFNγ-secreting specific cells using a bispecific antibody coating T cells and capturing produced IFNγ. Positive cells were purified magnetically before being cloned. Although MMP-2-specific cells could be isolated, it was realized that IFNγ secretion was marginal compared to their secretion of IL-4 and TNFα. IFNγ-secreting cells in response to MMP-2 peptide pool were enriched by cytokine-guided magnetic cell sorting (Miltenyi Biotec) as described above and cloned the following day by limiting dilution in the presence of irradiated allogeneic PBMCs, 1 μg/mL phytohemagglutinin-L (Sigma) and 150 UI/mL rhIL-2. Tumor infiltrating lymphocytes (TILs) were provided by Pr. F. Jotereau and B. Dréno. They were obtained from tumor-invaded lymph nodes of melanoma patients (stage Mb) and expanded ex vivo. These patients received autologous TILs and IL-2 infusions in a clinical trial (Labarriere et al., 2002). This protocol was approved by the Institutional Ethics Committee and registered with regulatory state authority in France (Nantes). […]

Assay [2] shares this test system. The assay can be described thus: Priming of naive cord blood CD4+ T cells with autologous CD4- cells loaded with different sources of MMP-2. The settings on record: for percentage of MMP-2-specific CD4+ T cells secreting IL-4, mean: 11 cord blood donors, 15 days after priming, after background subtraction; for mean of the individual differences in IL-4 secreting cells versus priming with active MMP-2: paired within donors. The protocol: Cord blood-derived CD4^+/CD25^− cells from 11 donors were stimulated with irradiated autologous CD4^− cells loaded either with active MMP-2, heat-inactivated (HI) MMP-2 or with MMP-2 pre-incubated with a specific inhibitor (+I). After 15 days, CD4^+ T cells were stimulated with the MMP-2 peptide pool (2 μM) for 6 h before intracellular staining of cytokines. (A) Density plots representing cytokine production by CD4^+ T cells are shown for the representative donor CB35 primed to MMP-2 either in its active form or after heat-inactivation. Numbers indicate percentages of cytokine-producing cells upon MMP-2 peptide stimulation. […] MMP-2 enzymatic activity was controlled (FIG. 13C-D). For each cytokine, 3 paired t-tests were used to compare active MMP-2 to heat inactivated MMP-2, to MMP-2+I, and to MMP-2 peptides. P values≦0.0167 (*) were considered statistically significant using a Bonferroni correction for 3 comparisons.
T Cell culture, stimulation and priming. Peripheral blood mononuclear cells (PBMCs) were purified from healthy donor-(HD) or cord blood donor-(CB) derived buffy coats (New York Blood Center) by Ficoll-Paque Plus (GE Healthcare) centrifugation. CD4^+/CD25^− cells were enriched (>90%) by magnetic cell sorting (Miltenyi Biotec) and primed/stimulated for 12-15 days either with irradiated (35Gy) autologous CD4^− cells or with autologous mature DCs in IMDM (GIBCO) supplemented with 1 mM HEPES (Life Technologies), 2 mM L-glutamine (Sigma), streptomycin (100 UI/mL)/penicillin (100 μg/mL) (Sigma) and 5% heat inactivated pooled human serum (PHS; Valley Biomedical) in the presence of rhIL-2 (10 UI/mL) and IL7 (5 ng/mL) (R&D Systems). Antigen presenting cells (CD4^− cells or DCs) were loaded either with peptides (2 μM) or with the MMP-2 protein (10 μg/mL) for 2 and 5 h, respectively. DCs were matured using the TLR3 agonist poly(I:C) at 5 μg/mL/10^6 DCs (Amersham). To generate T cell clones, we originally relied on our published methodology (Godefroy et al., 2006; Godefroy et al., 2007; the entire contents of each of which is incorporated herein by reference), involving enrichment of IFNγ-secreting cells upon short-term culture and peptide stimulation to generate MMP-2 responsive clones. Briefly, CD4^+ T cells were stimulated by CD4^− cells irradiated and pulsed with peptides for 12 days in the presence of rhIL-2 and rhIL-7. CD4^+ T cells were then restimulated with peptides for 3 hours before capturing IFNγ-secreting specific cells using a bispecific antibody coating T cells and capturing produced IFNγ. Positive cells were purified magnetically before being cloned. Although MMP-2-specific cells could be isolated, it was realized that IFNγ secretion was marginal compared to their secretion of IL-4 and TNFα. IFNγ-secreting cells in response to MMP-2 peptide pool were enriched by cytokine-guided magnetic cell sorting (Miltenyi Biotec) as described above and cloned the following day by limiting dilution in the presence of irradiated allogeneic PBMCs, 1 μg/mL phytohemagglutinin-L (Sigma) and 150 UI/mL rhIL-2. Tumor infiltrating lymphocytes (TILs) were provided by Pr. F. Jotereau and B. Dréno. They were obtained from tumor-invaded lymph nodes of melanoma patients (stage Mb) and expanded ex vivo. These patients received autologous TILs and IL-2 infusions in a clinical trial (Labarriere et al., 2002). This protocol was approved by the Institutional Ethics Committee and registered with regulatory state authority in France (Nantes).
Intracellular staining T-bet and GATA-3 expression was measured on resting T cells. Cells were fixed (4% paraformaldehyde for 10 min at RT), permeabilized with 0.1% saponin, and stained for intracellular transcription factors. Cytokine production by T cells was also assessed by intracellular staining T cells were stimulated with 2 μM overlapping peptides. After 1 h, 10 μg/mL brefeldin A was added to the cells. […]

Assay [3] has the same test system. The assay can be described thus: Priming of naive CD4+ T cells with active MMP-2-loaded DCs with rhIL-12 or blocking mAb for OX40L or IL-4. As to the method: […] CD4^+ T cells were then stimulated with the MMP-2 peptide pool (2 μM) for 6 h before intracellular staining of cytokines. Contour plots representing cytokine production by CD4^+ T cells are shown for donor CB31 CD4^+ T cells primed to MMP-2 alone, or together with rhIL-12, anti-OX40L mAb or anti-IL-4 mAb. (B) Percentages of MMP-2-specific CD4^+ T cells, secreting indicated cytokines, are represented for all donors. For each cytokine, 5 paired t-tests were used to compare “no conditioning” versus various conditions. P values≦0.01 (*) were considered statistically significant using a Bonferroni correction for 5 comparisons.
as §1, with “TNFα.” for “TNFα. IFNγ-secreting cells in response to MMP-2 peptide pool were enriched by cytokine-guided magnetic cell sorting (Miltenyi Biotec) as described above and cloned the following day by limiting dilution in the presence of irradiated allogeneic PBMCs, 1 μg/mL phytohemagglutinin-L (Sigma) and 150 UI/mL rhIL-2. Tumor infiltrating lymphocytes (TILs) were provided by Pr. F. Jotereau and B. Dréno. They were obtained from tumor-invaded lymph nodes of melanoma patients (stage Mb) and expanded ex vivo. These patients received autologous TILs and IL-2 infusions in a clinical trial (Labarriere et al., 2002). This protocol was approved by the Institutional Ethics Committee and registered with regulatory state authority in France (Nantes).”
Intracellular staining T-bet and GATA-3 expression was measured on resting T cells. […] Cytokine production by T cells was also assessed by intracellular staining T cells were stimulated with 2 μM overlapping peptides. […]

Setting [4] is: rhIL-12 10 ng/mL or mAb 10 μg/mL throughout priming.

B1: heat-inactivated MMP-2: MMP-2 enzyme inactivated by heating to 56° C. for 45 min (protein, UniProt P08253 110-660, looked up)
72 kDa type IV collagenase: YNFFPRKPKWDKNQITYRIIGYTPDLDPETVDDAFARAFQVWSDVTPLRFSRIHDGEADIMINFGRWEHGDGYPFDGKDGLLAHAFAPGTGVGGDSHFDDDELWTLGEGQVVRVKYGNADGEYCKFPFLFNGKEYNSCTDTGRSDGFLWCSTTYNFEKDGKYGFCPHEALFTMGGNAEGQPCKFPFRFQGTSYDSCTTEGRTDGYRWCGTTEDYDRDKKYGFCPETAMSTVGGNSEGAPCVFPFTFLGNKYESCTSAGRSDGKMWCATTANYDDDRKWGFCPDQGYSLFLVAAHEFGHAMGLEHSQDPGALMAPIYTYTKNFRLSQDDIKGIQELYGASPDIDLGTGPTPTLGPVTPEICKQDIVFDGIAQIRGEIFFFKDRFIWRTVTPRDKPMGPLLVATFWPELPEKIDAVYEAPQEEKAVFFAGNEYWIYSASTLERGYPKPLTSLGLPPDVQRVDAAFNWSKNKKTYIFAGDKFWRYNEVKKKMDPGFPKLIADAWNAIPDNLDAVVDLQGGGHSYFFKGAYYLKLENQSLKSVKFGSIKSDWLGC
modifications: heat-inactivated
B1: in assay [1], the “IFNγ, mean of differences relative to priming in the presence of active MMP-2” value is listed as 0.21; the “IL-2, mean of differences relative to priming in the presence of active MMP-2” value was found to be 0.11; the “IL-4, mean of differences relative to priming in the presence of active MMP-2” value turned out to be 1.92. In addition, in assay [2], the “percentage of MMP-2-specific CD4+ T cells secreting IL-4, mean” value was 0.45% and the “mean of the individual differences in IL-4 secreting cells versus priming with active MMP-2” value is reported as 1.80.

B2: MMP-2+I: MMP-2 enzyme inactivated by addition of the MMP-2 inhibitor III at 100 nM for 20 min (protein, UniProt P08253 110-660, looked up)
72 kDa type IV collagenase: YNFFPRKPKWDKNQITYRIIGYTPDLDPETVDDAFARAFQVWSDVTPLRFSRIHDGEADIMINFGRWEHGDGYPFDGKDGLLAHAFAPGTGVGGDSHFDDDELWTLGEGQVVRVKYGNADGEYCKFPFLFNGKEYNSCTDTGRSDGFLWCSTTYNFEKDGKYGFCPHEALFTMGGNAEGQPCKFPFRFQGTSYDSCTTEGRTDGYRWCGTTEDYDRDKKYGFCPETAMSTVGGNSEGAPCVFPFTFLGNKYESCTSAGRSDGKMWCATTANYDDDRKWGFCPDQGYSLFLVAAHEFGHAMGLEHSQDPGALMAPIYTYTKNFRLSQDDIKGIQELYGASPDIDLGTGPTPTLGPVTPEICKQDIVFDGIAQIRGEIFFFKDRFIWRTVTPRDKPMGPLLVATFWPELPEKIDAVYEAPQEEKAVFFAGNEYWIYSASTLERGYPKPLTSLGLPPDVQRVDAAFNWSKNKKTYIFAGDKFWRYNEVKKKMDPGFPKLIADAWNAIPDNLDAVVDLQGGGHSYFFKGAYYLKLENQSLKSVKFGSIKSDWLGC
modifications: with MMP-2 inhibitor III
As to B2, in assay [2], the “percentage of MMP-2-specific CD4+ T cells secreting IL-4, mean” value is recorded as 0.12% and the “mean of the individual differences in IL-4 secreting cells versus priming with active MMP-2” value is recorded as 1.47.

B3: rhIL-12: recombinant human IL-12 from R&D Systems (protein)
chain 1: RNLPVATPDPGMFPCLHHSQNLLRAVSNMLQKARQTLEFYPCTSEEIDHEDITKDKTSTVEACLPLELTKNESCLNSRETSFITNGSCLASRKTSFMMALCLSSIYEDLKMYQVEFKTMNAKLLMDPKRQIFLDQNMLAVIDELMQALNFNSETVPQKSSLEEPDFYKTKIKLCILLHAFRIRAVTIDRVMSYLNAS
chain 2: IWELKKDVYVVELDWYPDAPGEMVVLTCDTPEEDGITWTLDQSSEVLGSGKTLTIQVKEFGDAGQYTCHKGGEVLSHSLLLLHKKEDGIWSTDILKDQKEPKNKTFLRCEAKNYSGRFTCWWLTTISTDLTFSVKSSRGSSDPQGVTCGAATLSAERVRGDNKEYEYSVECQEDSACPAAEESLPIEVMVDAVHKLKYENYTSSFFIRDIIKPDPPKNLQLKPLKNSRQVEVSWEYPDTWSTPHSYFSLTFCVQVQGKSKREKKDRVFTDKTSATVICRKNASISVRAQDRYYSSSWSEWASVPCS
On to B3, for which, in assay [3] (doses as low as 1 ng/mL), the IFNγ-secreting cells result is recorded as “more” and the “percentages of IL4-secreting T cells” value is “lower percentages”. Also, in assay [3] (setting [4]), the “IFNγ secretion by primed MMP-2-specific CD4+ T cells versus no conditioning” value is “more” and the “IL-4 secretion by primed MMP-2-specific CD4+ T cells versus no conditioning” value is recorded as “less”.
